The target of the assay is T1, IrtA, full length (subunit of full-length Mtb IrtAB) (M. tuberculosis H37Rv, UniProt P9WQJ9 1-859).
T1 construct: also called Rv1348
T1 sequence: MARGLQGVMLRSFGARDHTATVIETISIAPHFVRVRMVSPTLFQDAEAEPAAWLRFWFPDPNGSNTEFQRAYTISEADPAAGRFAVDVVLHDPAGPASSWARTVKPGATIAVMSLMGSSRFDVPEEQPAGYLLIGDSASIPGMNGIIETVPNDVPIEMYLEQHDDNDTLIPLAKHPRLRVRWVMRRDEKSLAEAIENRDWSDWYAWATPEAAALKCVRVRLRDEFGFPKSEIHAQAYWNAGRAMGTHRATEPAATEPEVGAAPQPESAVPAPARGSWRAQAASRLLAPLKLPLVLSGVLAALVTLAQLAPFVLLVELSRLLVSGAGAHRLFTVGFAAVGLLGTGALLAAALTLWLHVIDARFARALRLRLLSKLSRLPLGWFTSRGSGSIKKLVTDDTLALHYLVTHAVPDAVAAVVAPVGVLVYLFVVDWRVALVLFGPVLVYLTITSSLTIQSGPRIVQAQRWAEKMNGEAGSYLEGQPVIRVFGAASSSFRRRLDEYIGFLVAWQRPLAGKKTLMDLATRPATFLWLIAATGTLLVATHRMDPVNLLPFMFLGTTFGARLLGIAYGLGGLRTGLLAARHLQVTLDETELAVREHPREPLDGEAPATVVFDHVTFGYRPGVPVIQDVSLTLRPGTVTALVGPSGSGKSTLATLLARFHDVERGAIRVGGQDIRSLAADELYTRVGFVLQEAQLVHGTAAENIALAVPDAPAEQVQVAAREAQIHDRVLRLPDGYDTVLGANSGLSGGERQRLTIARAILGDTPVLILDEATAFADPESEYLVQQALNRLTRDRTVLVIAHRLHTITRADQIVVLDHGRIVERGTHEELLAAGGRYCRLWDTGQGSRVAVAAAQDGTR
Put plainly: cryo-EM structure; full-length IrtAB in digitonin, no nucleotide added; 20 mM MES, 150 mM NaCl, pH 6.5; inward-facing. Conditions: both partners purified.

B1: IrtB with a C-terminal 10x His tag (subunit of Mtb IrtAB) (natural protein)
chain: MIRTWIALVPNDHRARLIGFALLAFCSVVARAVGTVLLVPLMAALFGEAPQRAWLWLGWLSAATVAGWVLDAVTARIGIELGFAVLNHTQHDVADRLPVVRLDWFTAENTATARQAIAATGPELVGLVVNLVTPLTSAILLPAVIALALLPISWQLGVAALAGVPLLLGALWASAAFARRADTAADKANTALTERIIEFARTQQALRAARRVEPARSLVGNALASQHTATMRLLGMQIPGQLLFSIASQLALIVLAGTTAALTITGTLTVPEAIALIVVMVRYLEPFTAVSELAPALESTRATLGRIGSVLTAPVMVAGSGTWRDGAVVPRIEFDDVAFGYDGGSGPVLDGVSFCLQPGTTTAIVGPSGCGKSTILALIAGLHQPTRGRVLIDGTDVATLDARAQQAVCSVVFQHPYLFHGTIRDNVFAADPGASDDQFAQAVRLARVDELIARLPDGANTIVGEAGSALSGGERQRVSIARALLKAAPVLLVDEATSALDAENEAAVVDALAADPRSRTRVIVAHRLASIRHADRVLFVDDGRVVEDGSISELLTAGGRFSQFWRQQHEAAEWQILAE
notes: IrtB (Rv1349) of Mycobacterium tuberculosis H37Rv, TMD and NBD; The same IrtB chain stands in full-length IrtAB and in IrtAB(ΔSID); also called Rv1349
In the case of B1, the binding result is listed as “binds”.

(Values after publication doi:10.1101/2022.01.11.475891, “Structural insights as to how iron-loaded siderophores are imported into Mycobacterium tuberculosis by IrtAB” (bioRxiv, 2022).)
